Data as given in US11541086.

Target: amyloid-beta oligomers prepared from synthetic Aβ1-42 (UniProt P05067)
Test: cell-based or functional assay

Sequence of UniProt P05067 (P05067 672-713 limits assumed): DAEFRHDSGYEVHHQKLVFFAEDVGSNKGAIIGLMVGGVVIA

NUsc1 scFv expressed and secreted by neurons transduced with the AAV9 vector AAV-NUsc1
AβO binding to dendrites in hippocampal neurons (NU4 immunoreactivity): 50 % decrease
